± gives the uncertainty stated by the source.
B1: POU domain, class 2, transcription factor 2, residues 200 to 269; numbered along this chain, P09086 (parent)
chain: LEELEQFARTFKQRRIKLGFTQGDVGLAMGKLYGNDFSQTTISRFEALNLSFKNMCKLKPLLEKWLNDAE

Variants of: B1
Assay: abundance fitness (aPCA) (normalised: wild type 0, dead -1); higher = more abundant; growth selection in yeast, the domain comes from the species named
Conditions: Homo sapiens

Variant	abundance fitness
LEELEQFARTFKQRRIKLGFTQQDVGLAMGKLYGNDFSQTTISRFEALNLSFKNMCKLKPLLEKWLNDAE [G23Q]	-0.07 ± 0.068
LEELEQFARTFKQRRIKLGFTQFDVGLAMGKLYGNDFSQTTISRFEALNLSFKNMCKLKPLLEKWLNDAE [G23F]	-0.01 ± 0.14
LEELEQFARTFKQRRIKLGFTQWDVGLAMGKLYGNDFSQTTISRFEALNLSFKNMCKLKPLLEKWLNDAE [G23W]	-0.076 ± 0.043
LEELEQFARTFKQRRIKLGFTQNDVGLAMGKLYGNDFSQTTISRFEALNLSFKNMCKLKPLLEKWLNDAE [G23N]	-0.089 ± 0.096
LEELEQFARTFKQRRIKLGFTQTDVGLAMGKLYGNDFSQTTISRFEALNLSFKNMCKLKPLLEKWLNDAE [G23T]	-0.102 ± 0.049
LEELEQFARTFKQRRIKLGFTQMDVGLAMGKLYGNDFSQTTISRFEALNLSFKNMCKLKPLLEKWLNDAE [G23M]	-0.01 ± 0.062
LEELEQFARTFKQRRIKLGFTQPDVGLAMGKLYGNDFSQTTISRFEALNLSFKNMCKLKPLLEKWLNDAE [G23P]	-0.136 ± 0.061
LEELEQFARTFKQRRIKLGFTQLDVGLAMGKLYGNDFSQTTISRFEALNLSFKNMCKLKPLLEKWLNDAE [G23L]	-0.021 ± 0.035
LEELEQFARTFKQRRIKLGFTQRDVGLAMGKLYGNDFSQTTISRFEALNLSFKNMCKLKPLLEKWLNDAE [G23R]	-0.004 ± 0.035
LEELEQFARTFKQRRIKLGFTQKDVGLAMGKLYGNDFSQTTISRFEALNLSFKNMCKLKPLLEKWLNDAE [G23K]	0.029 ± 0.064
LEELEQFARTFKQRRIKLGFTQYDVGLAMGKLYGNDFSQTTISRFEALNLSFKNMCKLKPLLEKWLNDAE [G23Y]	-0.218 ± 0.096
LEELEQFARTFKQRRIKLGFTQADVGLAMGKLYGNDFSQTTISRFEALNLSFKNMCKLKPLLEKWLNDAE [G23A]	0.04 ± 0.034
LEELEQFARTFKQRRIKLGFTQDDVGLAMGKLYGNDFSQTTISRFEALNLSFKNMCKLKPLLEKWLNDAE [G23D]	-0.055 ± 0.079
LEELEQFARTFKQRRIKLGFTQVDVGLAMGKLYGNDFSQTTISRFEALNLSFKNMCKLKPLLEKWLNDAE [G23V]	-0.029 ± 0.036
LEELEQFARTFKQRRIKLGFTQHDVGLAMGKLYGNDFSQTTISRFEALNLSFKNMCKLKPLLEKWLNDAE [G23H]	-0.056 ± 0.29
LEELEQFARTFKQRRIKLGFTQIDVGLAMGKLYGNDFSQTTISRFEALNLSFKNMCKLKPLLEKWLNDAE [G23I]	-0.004 ± 0.22
LEELEQFARTFKQRRIKLGFTQEDVGLAMGKLYGNDFSQTTISRFEALNLSFKNMCKLKPLLEKWLNDAE [G23E]	-0.04 ± 0.05
LEELEQFARTFKQRRIKLGPTQGDVGLAMGKLYGNDFSQTTISRFEALNLSFKNMCKLKPLLEKWLNDAE [F20P]	-1.01 ± 0.17
LEELEQFARTFKQRRIKLGTTQGDVGLAMGKLYGNDFSQTTISRFEALNLSFKNMCKLKPLLEKWLNDAE [F20T]	-0.317 ± 0.061
LEELEQFARTFKQRRIKLGSTQGDVGLAMGKLYGNDFSQTTISRFEALNLSFKNMCKLKPLLEKWLNDAE [F20S]	-0.207 ± 0.04
LEELEQFARTFKQRRIKLGWTQGDVGLAMGKLYGNDFSQTTISRFEALNLSFKNMCKLKPLLEKWLNDAE [F20W]	-0.065 ± 0.044
LEELEQFARTFKQRRIKLGNTQGDVGLAMGKLYGNDFSQTTISRFEALNLSFKNMCKLKPLLEKWLNDAE [F20N]	-0.427 ± 0.17
LEELEQFARTFKQRRIKLGQTQGDVGLAMGKLYGNDFSQTTISRFEALNLSFKNMCKLKPLLEKWLNDAE [F20Q]	-0.081 ± 0.058
LEELEQFARTFKQRRIKLGYTQGDVGLAMGKLYGNDFSQTTISRFEALNLSFKNMCKLKPLLEKWLNDAE [F20Y]	-0.111 ± 0.1
LEELEQFARTFKQRRIKLGRTQGDVGLAMGKLYGNDFSQTTISRFEALNLSFKNMCKLKPLLEKWLNDAE [F20R]	-0.083 ± 0.034
LEELEQFARTFKQRRIKLGVTQGDVGLAMGKLYGNDFSQTTISRFEALNLSFKNMCKLKPLLEKWLNDAE [F20V]	-0.13 ± 0.038

Variant	abundance fitness
LEELEQFARTFKQRRIKLGFIQGDVGLAMGKLYGNDFSQTTISRFEALNLSFKNMCKLKPLLEKWLNDAE [T21I]	-0.746 ± 0.14
LEELEQFARTFKQRRIKLGFRQGDVGLAMGKLYGNDFSQTTISRFEALNLSFKNMCKLKPLLEKWLNDAE [T21R]	-0.14 ± 0.03
LEELEQFARTFKQRRIKLGFKQGDVGLAMGKLYGNDFSQTTISRFEALNLSFKNMCKLKPLLEKWLNDAE [T21K]	-0.173 ± 0.06
LEELEQFARTFKQRRIKLGFQQGDVGLAMGKLYGNDFSQTTISRFEALNLSFKNMCKLKPLLEKWLNDAE [T21Q]	-0.205 ± 0.058
LEELEQFARTFKQRRIKLGFFQGDVGLAMGKLYGNDFSQTTISRFEALNLSFKNMCKLKPLLEKWLNDAE [T21F]	-0.625 ± 0.13
LEELEQFARTFKQRRIKLGFYQGDVGLAMGKLYGNDFSQTTISRFEALNLSFKNMCKLKPLLEKWLNDAE [T21Y]	-0.77 ± 0.2
LEELEQFARTFKQRRIKLGFVQGDVGLAMGKLYGNDFSQTTISRFEALNLSFKNMCKLKPLLEKWLNDAE [T21V]	-0.573 ± 0.052
LEELEQFARTFKQRRIKLGFCQGDVGLAMGKLYGNDFSQTTISRFEALNLSFKNMCKLKPLLEKWLNDAE [T21C]	-0.212 ± 0.065
LEELEQFARTFKQRRIKLGFLQGDVGLAMGKLYGNDFSQTTISRFEALNLSFKNMCKLKPLLEKWLNDAE [T21L]	-0.323 ± 0.041
LEELEQFARTFKQRRIKLGFAQGDVGLAMGKLYGNDFSQTTISRFEALNLSFKNMCKLKPLLEKWLNDAE [T21A]	-0.138 ± 0.04
LEELEQFARTFKQRRIKLGFGQGDVGLAMGKLYGNDFSQTTISRFEALNLSFKNMCKLKPLLEKWLNDAE [T21G]	-0.135 ± 0.032
LEELEQFARTFKQRRIKLGFWQGDVGLAMGKLYGNDFSQTTISRFEALNLSFKNMCKLKPLLEKWLNDAE [T21W]	-0.633 ± 0.062
LEELEQFARTFKQRRIKLGFEQGDVGLAMGKLYGNDFSQTTISRFEALNLSFKNMCKLKPLLEKWLNDAE [T21E]	-0.165 ± 0.043
LEELEQFARTFKQRRIKLGFSQGDVGLAMGKLYGNDFSQTTISRFEALNLSFKNMCKLKPLLEKWLNDAE [T21S]	-0.044 ± 0.042
LEELEQFARTFKQRRIKLGFHQGDVGLAMGKLYGNDFSQTTISRFEALNLSFKNMCKLKPLLEKWLNDAE [T21H]	-0.286 ± 0.12
LEELEQFARTFKQRRIKLGFMQGDVGLAMGKLYGNDFSQTTISRFEALNLSFKNMCKLKPLLEKWLNDAE [T21M]	-0.26 ± 0.058
LEELEQFARTFKQRRIKLGFTQGFVGLAMGKLYGNDFSQTTISRFEALNLSFKNMCKLKPLLEKWLNDAE [D24F]	-0.158 ± 0.11
LEELEQFARTFKQRRIKLGFTQGPVGLAMGKLYGNDFSQTTISRFEALNLSFKNMCKLKPLLEKWLNDAE [D24P]	-0.918 ± 0.099
LEELEQFARTFKQRRIKLGFTQGLVGLAMGKLYGNDFSQTTISRFEALNLSFKNMCKLKPLLEKWLNDAE [D24L]	-0.215 ± 0.032
LEELEQFARTFKQRRIKLGFTQGRVGLAMGKLYGNDFSQTTISRFEALNLSFKNMCKLKPLLEKWLNDAE [D24R]	-0.177 ± 0.033
LEELEQFARTFKQRRIKLGFTQGKVGLAMGKLYGNDFSQTTISRFEALNLSFKNMCKLKPLLEKWLNDAE [D24K]	-0.202 ± 0.067
LEELEQFARTFKQRRIKLGFTQGWVGLAMGKLYGNDFSQTTISRFEALNLSFKNMCKLKPLLEKWLNDAE [D24W]	-0.285 ± 0.045
LEELEQFARTFKQRRIKLGFTQGMVGLAMGKLYGNDFSQTTISRFEALNLSFKNMCKLKPLLEKWLNDAE [D24M]	-0.125 ± 0.078
LEELEQFARTFKQRRIKLGFTQGEVGLAMGKLYGNDFSQTTISRFEALNLSFKNMCKLKPLLEKWLNDAE [D24E]	-0.093 ± 0.065
LEELEQFARTFKQRRIKLGFTQGTVGLAMGKLYGNDFSQTTISRFEALNLSFKNMCKLKPLLEKWLNDAE [D24T]	-0.199 ± 0.075
LEELEQFARTFKQRRIKLGFTQGQVGLAMGKLYGNDFSQTTISRFEALNLSFKNMCKLKPLLEKWLNDAE [D24Q]	0.003 ± 0.053

Variant	abundance fitness
LEELEQFARTFKQRRIKLGFTQGCVGLAMGKLYGNDFSQTTISRFEALNLSFKNMCKLKPLLEKWLNDAE [D24C]	-0.172 ± 0.13
LEELEQFARTFKQRRIKLGFTQGGVGLAMGKLYGNDFSQTTISRFEALNLSFKNMCKLKPLLEKWLNDAE [D24G]	-0.113 ± 0.033
LEELEQFARTFKQRRIKLGFTQGNVGLAMGKLYGNDFSQTTISRFEALNLSFKNMCKLKPLLEKWLNDAE [D24N]	-0.091 ± 0.058
LEELEQFARTFKQRRIKLGFTQGSVGLAMGKLYGNDFSQTTISRFEALNLSFKNMCKLKPLLEKWLNDAE [D24S]	-0.091 ± 0.043
LEELEQFARTFKQRRIKLGFTQGAVGLAMGKLYGNDFSQTTISRFEALNLSFKNMCKLKPLLEKWLNDAE [D24A]	-0.07 ± 0.048
LEELEQFARTFKQRRIKLGFTQGVVGLAMGKLYGNDFSQTTISRFEALNLSFKNMCKLKPLLEKWLNDAE [D24V]	-0.169 ± 0.048
LEELEQFARTFKQRRIKLGFTQGIVGLAMGKLYGNDFSQTTISRFEALNLSFKNMCKLKPLLEKWLNDAE [D24I]	-0.792 ± 0.28
LEELEQFARTFKQRRIKLGFTQGHVGLAMGKLYGNDFSQTTISRFEALNLSFKNMCKLKPLLEKWLNDAE [D24H]	-0.065 ± 0.076
LEELEQFARTFKQRRIKLGFTIGDVGLAMGKLYGNDFSQTTISRFEALNLSFKNMCKLKPLLEKWLNDAE [Q22I]	-0.12 ± 0.16
LEELEQFARTFKQRRIKLGFTFGDVGLAMGKLYGNDFSQTTISRFEALNLSFKNMCKLKPLLEKWLNDAE [Q22F]	-0.097 ± 0.1
LEELEQFARTFKQRRIKLGFTNGDVGLAMGKLYGNDFSQTTISRFEALNLSFKNMCKLKPLLEKWLNDAE [Q22N]	-0.351 ± 0.18
LEELEQFARTFKQRRIKLGFTHGDVGLAMGKLYGNDFSQTTISRFEALNLSFKNMCKLKPLLEKWLNDAE [Q22H]	-0.062 ± 0.11
LEELEQFARTFKQRRIKLGFTSGDVGLAMGKLYGNDFSQTTISRFEALNLSFKNMCKLKPLLEKWLNDAE [Q22S]	-0.093 ± 0.047
LEELEQFARTFKQRRIKLGFTGGDVGLAMGKLYGNDFSQTTISRFEALNLSFKNMCKLKPLLEKWLNDAE [Q22G]	-0.187 ± 0.034
LEELEQFARTFKQRRIKLGFTVGDVGLAMGKLYGNDFSQTTISRFEALNLSFKNMCKLKPLLEKWLNDAE [Q22V]	-0.059 ± 0.038
LEELEQFARTFKQRRIKLGFTMGDVGLAMGKLYGNDFSQTTISRFEALNLSFKNMCKLKPLLEKWLNDAE [Q22M]	-0.054 ± 0.05
LEELEQFARTFKQRRIKLGFTLGDVGLAMGKLYGNDFSQTTISRFEALNLSFKNMCKLKPLLEKWLNDAE [Q22L]	-0.025 ± 0.042
LEELEQFARTFKQRRIKLGFTPGDVGLAMGKLYGNDFSQTTISRFEALNLSFKNMCKLKPLLEKWLNDAE [Q22P]	-0.071 ± 0.051
LEELEQFARTFKQRRIKLGFTAGDVGLAMGKLYGNDFSQTTISRFEALNLSFKNMCKLKPLLEKWLNDAE [Q22A]	0.004 ± 0.05
LEELEQFARTFKQRRIKLGFTKGDVGLAMGKLYGNDFSQTTISRFEALNLSFKNMCKLKPLLEKWLNDAE [Q22K]	-0.042 ± 0.07
LEELEQFARTFKQRRIKLGFTTGDVGLAMGKLYGNDFSQTTISRFEALNLSFKNMCKLKPLLEKWLNDAE [Q22T]	-0.045 ± 0.049
LEELEQFARTFKQRRIKLGFTRGDVGLAMGKLYGNDFSQTTISRFEALNLSFKNMCKLKPLLEKWLNDAE [Q22R]	-0.11 ± 0.037
LEELEQFARTFKQRRIKLGFTCGDVGLAMGKLYGNDFSQTTISRFEALNLSFKNMCKLKPLLEKWLNDAE [Q22C]	-0.004 ± 0.07
LEELEQFARTFKQRRIKLGFTWGDVGLAMGKLYGNDFSQTTISRFEALNLSFKNMCKLKPLLEKWLNDAE [Q22W]	-0.006 ± 0.047
LEELEQFARTFKQRRIKLGFTYGDVGLAMGKLYGNDFSQTTISRFEALNLSFKNMCKLKPLLEKWLNDAE [Q22Y]	-0.423 ± 0.1

— the Human Domainome abundance scans (Beltran et al. 2025)
